According to US10144929B2, “Polypeptide inhibitors of Smad3 polypeptide activities” (Mayo Foundation for Medical Education and Research, priority 2016, dated 2018):

Target: T1, pSmad3 (Mus musculus, UniProt Q8BUN5)
T1 construct: endogenous in cells; host or cells: AKR-2B cells
Assay: Nuclear import of pSmad3 (nuclear fractions Western, immunofluorescence) in AKR-2B cells
Assay type: cell-based
Details: 90 minutes transduction, TGFβ 5 ng/mL 1 hour
Procedure: FIGS. 1A-C. SH3 domain of sorting nexin 9 (SNX9) specifically binds pSmad3 and prevents nuclear import. (A) Cartoon depicting domains in full length (FL) SNX9 and constructs used for GST pull down assays. Lysates from AKR-2B cells untreated (−) or stimulated (+) for 45 minutes with 5 ng/mL TGFβ were incubated with GST beads or the indicated fusion polypeptides immobilized on GST beads. Bound polypeptides were eluted and assessed by Western analysis for pSmad3 or pSmad2. Cell lysate reflects signal obtained from 10 μg total protein. (B) AKR-2B cells were transduced for 90 minutes with the indicated concentrations of the TAT-SNX9(SH3) fusion polypeptides. […] Quantitation of nuclear pSmads was performed with Image J software and represents the mean+/−sd of two experiments (Right). […] Quantitation of nuclear Smad3 from 30 cells in each of two experiments (Right).
FIGS. 3A-E. Inhibition of Smad3 signaling by a defined region of the SH3 domain in SNX9. […] (B) Nuclear fractions were prepared and assessed as in FIG. 1B following transduction with the indicated TAT-SNX9(SH3) fusion polypeptide (Left). Quantitation (mean+/−sd) of nuclear pSmad2 or pSmad3 from 2 experiments (Right). (C) Immunofluorescence of nuclear Smad3 was determined as in FIG. 1C from 30 cells in each of two experiments in the absence (−) or presence (+) of 5 ng/mL TGFβ and the indicated TAT-SNX9(SH3) fusion polypeptide (1.5 μM). […]

T1 sequence (Q8BUN5 whole entry): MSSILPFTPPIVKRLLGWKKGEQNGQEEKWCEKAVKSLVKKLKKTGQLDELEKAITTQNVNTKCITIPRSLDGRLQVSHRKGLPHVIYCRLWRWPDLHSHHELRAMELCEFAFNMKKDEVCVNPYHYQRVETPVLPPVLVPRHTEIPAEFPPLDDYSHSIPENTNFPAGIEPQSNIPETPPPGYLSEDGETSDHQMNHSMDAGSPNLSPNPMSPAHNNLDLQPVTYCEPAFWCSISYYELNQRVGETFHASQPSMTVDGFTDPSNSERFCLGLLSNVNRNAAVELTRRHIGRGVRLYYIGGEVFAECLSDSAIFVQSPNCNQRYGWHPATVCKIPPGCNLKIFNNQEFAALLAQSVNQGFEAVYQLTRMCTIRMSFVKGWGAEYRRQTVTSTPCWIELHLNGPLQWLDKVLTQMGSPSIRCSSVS

## TAT-SH3-2: TAT-SNX9(SH3) fusion polypeptide having SNX9 amino acids 21-51 (31 mer) (TVNEGEIITITNPDVGGGWLEGRNIKGERGL; left off: small tags and cut ends)
  nuclear import of pSmad3: specifically prevented pSmad3 nuclear import
